Publication PMC10303064, “Sulfated Lactosyl Archaeol Archaeosome-Adjuvanted Vaccine Formulations Targeting Rabbit Hemorrhagic Disease Virus Are Immunogenic and Efficacious” (Vaccines, 2023)

Target: the molecule itself
Test: negative-stain transmission electron microscopy; purified RHDV2 VP60 protein alone adsorbed on glow-discharged formvar/carbon copper grids, stained with 1% uranyl acetate, imaged at 300 keV

B1: RHDV2 VP60 capsid protein (natural protein)
chain: EGKARAAPQGETAGTATTASVPGTTTDGMDPGVVATTSVVTTENASTSIATAGIGGPPQQVDQQETWRTNFYYNDVFTWSVADAPGNILYTVQHSPQNNPFTAVLSQMYAGWAGGMQFRFIVAGSGVFGGRLVAAVIPPGIEIGPGLEVRQFPHVVIDARSLEPVTITMPDLRPNMYHPTGNPGLVPTLVLSVYNNLINPFGGSTSAIQVTVETRPSEDFEFVMIRAPSSKTVDSISPADLLTTPVLTGVGTDNRWNGEIVGLQPVPGGFSTCNRHWNLNGSTFGWSSPRFAAIDHDGGNASFPGSSSSNVLELWYASAGSATDNPISQIAPDGFPDMSFVPFSGSTIPTAGWVGFGGIWNSNNGAPFVTTMQAYELGFATGAPSNPQPTTTTSGAQIVAKSIYGVANGINQTTAGLFVMASGVISTPNSSAITYTPQPNRIVNAPGTPAAAPIGKNTPIMFASVVRRTGDINAEAGSTNGTQYGAGSQPLPVTVGLSLNNYSSALMPGQFFVWQLNFASGFMELGLSVDGYFYAGTGALATLIDLSELVDIRPVGPRPSTSTLVYNLGGTTNGFSYV
notes: VP60 capsid protein of rabbit hemorrhagic disease virus 2 (RHDV2); the tag was removed after purification; After TEV cleavage a single G of the ENLYFQG site probably stays in front of E2 (surmised); Self-assembles into virus-like particles of ~30 nm; also called RHDV2 VLP; RHDV2 capsid protein; source: Baculovirus expression system (GenScript), purified, tag removed; not shown: His6, N-terminal, …
binding result: binds
